Laboratory results: the supplement of paper PMC10201428
± gives the standard deviation of the averaged measurements.

How the values were obtained:
[1] = test system: VchCAST RNA-guided transposition machinery (E. coli BL21(DE3) host, lacZ target); assay: relative integration efficiency (T-LR orientation) vs wild-type transposon end (log2 (normalized fold change)); transposon end mutated: right end (5 bp flank + 75 bp right end); higher = more efficient transposition
Procedure, shortened: (§1)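 Co-transformation of E. coli BL21(DE3) combined a pUC57 mini-transposon donor, holding barcoded pools of 1549 left-end or 1849 right-end variants, with a T7-driven plasmid encoding a CRISPR array, tniQ-cas8-cas7-cas6 and tnsA-tnsB-tnsC. After plating with 0.1 mM IPTG at 37°C for 18 h, input plasmids and genomic integration junctions were PCR-amplified and Illumina-sequenced across two biological output replicates, with four reference barcodes. Relative integration efficiency is the normalised, log-transformed output/input barcode fold change.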

[2] = test system: VchCAST RNA-guided transposition machinery (E. coli BL21(DE3) host, lacZ target); assay: relative integration efficiency (T-RL orientation) vs wild-type transposon end (log2 (normalized fold change)); transposon end mutated: right end (5 bp flank + 75 bp right end); higher = more efficient transposition
Procedure, shortened: as §1

Sequence | relative integration efficiency (log2) [1] | relative integration efficiency (log2) [2]
ACATTTGTTGATACACCCATAAATTGATATTGCCAACCATAAGTTGATATTTTTCACAACCATAAGTTGATATTTTCTCTGATCATAGTCAGACCAACATTGCTACGACCCGTATTCGCACCGACAC | -0.197 ± 0.3 | -0.695 ± 0.095
ACATTTGTTGATACACCCATAAATTGATATTGCCAACCATAAGTTGATATTTTTCACAACCATATATTGATATCTCCTCTGATCATAGTCAGACCAACATTGCTACGACCCGTATTCGCACCGACAC | 0.0942 ± 0.34 | -0.899 ± 0.17
ACATTTGTTGATACACCCATAAATTGATATTGCCAACCATAAGTTGATATTTTTCACACCCATAAATTGATAATTACTCTGATCATAGTCAGACCAACATTGCTACGACCCGTATTCGCACCGACAC | 0.0375 ± 0.27 | -0.7 ± 0.21
ACATTTGTTGATACACCCATAAATTGATATTGCCAACCATAAGTTGATATTTTTCACACCCATAAATTGATATTGCCTCTGATCATAGTCAGACCAACATTGCTACGACCCGTATTCGCACCGACAC | -0.37 ± 0.1 | -0.773 ± 0.11
ACATTTGTTGATACACCCATAAATTGATATTGCCAACCATAAGTTGATATTTTTCAGTGGGTATTTAACTATAACGCTCTGATCATAGTCAGACCAACATTGCTACGACCCGTATTCGCACCGACAC | 2.3 ± 0.092 | -1.31 ± 0.4
ACATTTGTTGATACACCCATAAATTGATATTGCCAACCATATATTGATATCTCTCACAACCATAAAATGATAATTACTCTGATCATAGTCAGACCAACATTGCTACGACCCGTATTCGCACCGACAC | -0.955 ± 0.52 | -1.22 ± 0.23
ACATTTGTTGATACACCCATAAATTGATATTGCCAACCATATATTGATATCTCTCACAACCATAAAGTGATATTTACTCTGATCATAGTCAGACCAACATTGCTACGACCCGTATTCGCACCGACAC | -0.365 ± 0.021 | -1.21 ± 0.24
ACATTTGTTGATACACCCATAAATTGATATTGCCAACCATATATTGATATCTCTCACAACCATAAGTTGATATTTTCTCTGATCATAGTCAGACCAACATTGCTACGACCCGTATTCGCACCGACAC | 1.12 ± 0.16 | 0.0747 ± 0.27
ACATTTGTTGATACACCCATAAATTGATATTGCCAACCATATATTGATATCTCTCACAACCATATATTGATATCTCCTCTGATCATAGTCAGACCAACATTGCTACGACCCGTATTCGCACCGACAC | -0.214 ± 0.48 | -1.29 ± 0.34
ACATTTGTTGATACACCCATAAATTGATATTGCCAACCATATATTGATATCTCTCACACCCATAAATTGATAATTACTCTGATCATAGTCAGACCAACATTGCTACGACCCGTATTCGCACCGACAC | 0.0732 ± 0.11 | -1.1 ± 0.15
ACATTTGTTGATACACCCATAAATTGATATTGCCAACCATATATTGATATCTCTCACACCCATAAATTGATATTGCCTCTGATCATAGTCAGACCAACATTGCTACGACCCGTATTCGCACCGACAC | -0.587 ± 0.35 | -1.11 ± 0.06
ACATTTGTTGATACACCCATAAATTGATATTGCCAACCATATATTGATATCTCTCAGTGGGTATTTAACTATAACGCTCTGATCATAGTCAGACCAACATTGCTACGACCCGTATTCGCACCGACAC | 2.26 ± 0.088 | -1.7 ± 0.32
ACATTTGTTGATACACCCATAAATTGATATTGCCACCCATAAATTGATAATTATCACAACCATAAAATGATAATTACTCTGATCATAGTCAGACCAACATTGCTACGACCCGTATTCGCACCGACAC | -0.453 ± 0.047 | -0.382 ± 0.087
ACATTTGTTGATACACCCATAAATTGATATTGCCACCCATAAATTGATAATTATCACAACCATAAAGTGATATTTACTCTGATCATAGTCAGACCAACATTGCTACGACCCGTATTCGCACCGACAC | -0.376 ± 0.6 | -0.75 ± 0.089
ACATTTGTTGATACACCCATAAATTGATATTGCCACCCATAAATTGATAATTATCACAACCATAAGTTGATATTTTCTCTGATCATAGTCAGACCAACATTGCTACGACCCGTATTCGCACCGACAC | -0.238 ± 0.32 | -0.676 ± 0.16
